Test results reported in patent US20050096288.

Target: VLDL (apolipoprotein B-100 containing) (Homo sapiens) (UniProt P04114)
Assay: EMSA
Details: LDL has greater affinity

Sequence of UniProt P04114 (P04114 28-4563): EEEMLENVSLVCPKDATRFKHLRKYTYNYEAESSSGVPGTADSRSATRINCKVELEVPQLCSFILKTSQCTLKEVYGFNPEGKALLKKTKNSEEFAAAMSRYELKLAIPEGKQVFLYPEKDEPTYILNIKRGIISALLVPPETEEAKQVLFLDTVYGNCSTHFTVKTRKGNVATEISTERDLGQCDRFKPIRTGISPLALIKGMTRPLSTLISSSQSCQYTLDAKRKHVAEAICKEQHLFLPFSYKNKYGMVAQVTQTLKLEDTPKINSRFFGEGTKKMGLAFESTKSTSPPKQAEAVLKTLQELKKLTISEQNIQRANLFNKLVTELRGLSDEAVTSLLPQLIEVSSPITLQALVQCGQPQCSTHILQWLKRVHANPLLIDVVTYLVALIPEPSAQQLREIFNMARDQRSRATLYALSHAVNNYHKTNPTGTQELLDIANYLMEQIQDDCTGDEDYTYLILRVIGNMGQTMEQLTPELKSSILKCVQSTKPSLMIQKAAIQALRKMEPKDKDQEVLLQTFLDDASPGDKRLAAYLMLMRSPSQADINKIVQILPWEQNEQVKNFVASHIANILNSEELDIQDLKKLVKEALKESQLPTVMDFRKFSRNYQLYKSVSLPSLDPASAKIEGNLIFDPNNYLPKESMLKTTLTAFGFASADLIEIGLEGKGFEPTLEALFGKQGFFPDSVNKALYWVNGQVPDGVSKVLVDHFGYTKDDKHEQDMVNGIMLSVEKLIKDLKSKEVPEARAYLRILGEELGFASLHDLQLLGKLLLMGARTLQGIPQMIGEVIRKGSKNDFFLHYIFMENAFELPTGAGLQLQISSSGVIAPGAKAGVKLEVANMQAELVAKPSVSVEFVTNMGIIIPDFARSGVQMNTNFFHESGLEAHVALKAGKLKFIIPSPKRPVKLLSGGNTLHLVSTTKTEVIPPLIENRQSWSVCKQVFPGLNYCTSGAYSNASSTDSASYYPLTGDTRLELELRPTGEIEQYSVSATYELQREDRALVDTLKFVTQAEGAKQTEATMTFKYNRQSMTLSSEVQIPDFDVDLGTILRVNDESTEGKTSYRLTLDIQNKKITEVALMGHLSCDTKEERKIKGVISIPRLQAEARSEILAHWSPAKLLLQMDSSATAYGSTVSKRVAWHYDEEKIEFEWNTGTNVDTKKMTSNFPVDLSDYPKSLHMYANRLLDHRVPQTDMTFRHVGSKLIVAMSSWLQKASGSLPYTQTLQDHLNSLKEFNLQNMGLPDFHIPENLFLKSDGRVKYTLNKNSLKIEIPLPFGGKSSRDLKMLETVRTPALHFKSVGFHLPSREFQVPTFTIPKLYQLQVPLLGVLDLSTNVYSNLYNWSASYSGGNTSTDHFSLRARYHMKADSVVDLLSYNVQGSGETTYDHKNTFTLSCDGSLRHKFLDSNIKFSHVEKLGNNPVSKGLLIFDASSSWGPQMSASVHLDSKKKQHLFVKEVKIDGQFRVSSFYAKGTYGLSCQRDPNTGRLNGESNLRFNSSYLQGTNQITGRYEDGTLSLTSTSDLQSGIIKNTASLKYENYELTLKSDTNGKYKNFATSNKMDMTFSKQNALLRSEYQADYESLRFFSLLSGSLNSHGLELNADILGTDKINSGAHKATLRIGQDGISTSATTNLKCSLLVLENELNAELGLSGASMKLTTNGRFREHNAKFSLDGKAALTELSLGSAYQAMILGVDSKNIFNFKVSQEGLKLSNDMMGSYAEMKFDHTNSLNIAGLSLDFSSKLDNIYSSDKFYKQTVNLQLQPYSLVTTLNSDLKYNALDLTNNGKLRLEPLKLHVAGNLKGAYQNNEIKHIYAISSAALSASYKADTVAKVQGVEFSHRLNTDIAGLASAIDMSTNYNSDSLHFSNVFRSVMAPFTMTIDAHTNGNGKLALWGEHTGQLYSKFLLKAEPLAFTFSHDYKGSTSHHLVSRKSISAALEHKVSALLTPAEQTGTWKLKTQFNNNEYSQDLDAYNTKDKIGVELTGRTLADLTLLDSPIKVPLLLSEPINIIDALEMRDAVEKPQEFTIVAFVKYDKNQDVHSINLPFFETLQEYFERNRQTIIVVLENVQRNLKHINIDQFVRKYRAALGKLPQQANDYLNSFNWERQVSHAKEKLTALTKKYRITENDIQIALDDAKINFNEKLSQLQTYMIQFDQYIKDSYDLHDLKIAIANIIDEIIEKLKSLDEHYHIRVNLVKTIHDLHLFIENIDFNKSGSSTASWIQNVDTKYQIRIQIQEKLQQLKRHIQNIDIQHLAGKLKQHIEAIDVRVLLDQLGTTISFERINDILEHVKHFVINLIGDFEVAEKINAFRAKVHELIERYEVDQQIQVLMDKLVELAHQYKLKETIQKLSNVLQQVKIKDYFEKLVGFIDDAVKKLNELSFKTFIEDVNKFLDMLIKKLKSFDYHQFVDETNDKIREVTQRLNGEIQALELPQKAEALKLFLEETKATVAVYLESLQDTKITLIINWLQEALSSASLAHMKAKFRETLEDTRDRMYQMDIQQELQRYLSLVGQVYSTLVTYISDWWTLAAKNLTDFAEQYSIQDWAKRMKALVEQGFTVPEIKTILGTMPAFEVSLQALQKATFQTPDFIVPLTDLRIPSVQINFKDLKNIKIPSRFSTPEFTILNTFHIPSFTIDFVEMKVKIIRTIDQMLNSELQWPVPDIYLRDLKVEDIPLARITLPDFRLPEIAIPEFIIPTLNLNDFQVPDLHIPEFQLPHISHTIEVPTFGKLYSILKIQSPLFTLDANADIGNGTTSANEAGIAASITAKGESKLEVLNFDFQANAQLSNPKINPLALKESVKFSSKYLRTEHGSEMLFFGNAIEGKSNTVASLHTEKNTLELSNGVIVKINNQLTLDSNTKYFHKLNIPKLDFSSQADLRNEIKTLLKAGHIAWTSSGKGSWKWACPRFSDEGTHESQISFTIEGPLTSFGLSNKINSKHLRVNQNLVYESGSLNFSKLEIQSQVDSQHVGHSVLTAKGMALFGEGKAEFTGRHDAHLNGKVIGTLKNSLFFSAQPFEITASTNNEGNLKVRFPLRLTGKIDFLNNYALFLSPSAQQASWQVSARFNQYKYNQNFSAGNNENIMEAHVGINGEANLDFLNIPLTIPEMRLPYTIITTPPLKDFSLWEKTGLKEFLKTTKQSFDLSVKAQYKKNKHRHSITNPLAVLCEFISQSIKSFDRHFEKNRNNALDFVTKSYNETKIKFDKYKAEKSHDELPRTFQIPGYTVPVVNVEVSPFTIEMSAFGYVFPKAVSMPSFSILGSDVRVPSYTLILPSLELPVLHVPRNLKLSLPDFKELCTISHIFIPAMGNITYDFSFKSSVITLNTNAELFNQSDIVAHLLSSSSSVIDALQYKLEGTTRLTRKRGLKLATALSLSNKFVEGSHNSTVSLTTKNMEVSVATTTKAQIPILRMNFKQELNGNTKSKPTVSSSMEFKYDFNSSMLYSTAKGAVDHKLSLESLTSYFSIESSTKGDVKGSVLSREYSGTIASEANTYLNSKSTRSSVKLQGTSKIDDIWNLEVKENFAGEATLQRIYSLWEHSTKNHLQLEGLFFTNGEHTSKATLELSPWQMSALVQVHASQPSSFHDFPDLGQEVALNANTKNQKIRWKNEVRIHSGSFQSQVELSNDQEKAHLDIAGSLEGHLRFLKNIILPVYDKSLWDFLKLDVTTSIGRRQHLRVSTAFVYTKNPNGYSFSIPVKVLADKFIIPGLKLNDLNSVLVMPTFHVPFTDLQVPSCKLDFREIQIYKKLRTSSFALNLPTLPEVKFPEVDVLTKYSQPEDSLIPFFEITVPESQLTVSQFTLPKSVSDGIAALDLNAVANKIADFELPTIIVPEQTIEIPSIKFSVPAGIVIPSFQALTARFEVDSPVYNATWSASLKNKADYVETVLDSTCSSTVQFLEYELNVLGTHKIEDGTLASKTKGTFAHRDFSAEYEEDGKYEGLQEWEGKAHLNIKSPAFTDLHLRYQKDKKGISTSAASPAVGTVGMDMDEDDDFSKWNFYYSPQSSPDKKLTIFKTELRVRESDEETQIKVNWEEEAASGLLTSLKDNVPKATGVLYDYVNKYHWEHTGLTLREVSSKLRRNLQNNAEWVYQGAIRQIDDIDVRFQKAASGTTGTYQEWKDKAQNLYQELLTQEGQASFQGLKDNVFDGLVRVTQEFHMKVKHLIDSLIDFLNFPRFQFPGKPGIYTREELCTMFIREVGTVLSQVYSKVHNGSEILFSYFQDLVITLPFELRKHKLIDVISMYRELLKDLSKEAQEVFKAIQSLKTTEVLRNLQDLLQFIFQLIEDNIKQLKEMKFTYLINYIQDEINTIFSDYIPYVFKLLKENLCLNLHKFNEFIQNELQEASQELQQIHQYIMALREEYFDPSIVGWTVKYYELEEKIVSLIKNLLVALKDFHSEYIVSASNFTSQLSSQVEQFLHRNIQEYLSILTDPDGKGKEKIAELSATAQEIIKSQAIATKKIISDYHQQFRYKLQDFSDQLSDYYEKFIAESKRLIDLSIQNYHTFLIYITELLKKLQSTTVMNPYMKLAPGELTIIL

Row | Substance | binding signal (% of total labeled DNA)
1 | E/C oligonucleotide (E-box CANNTG and CCAAT) | < 1
2 | SRE oligonucleotide | < 1
